In publication PMC11092868, “Mapping Novel Frataxin Mitochondrial Networks Through Protein- Protein Interactions” (Research Square, 2024):

Biological target: the molecule itself
Assay: non-reducing SDS-PAGE and immunoblot after NEM alkylation; lysis in alkylation buffer with 100 mM N-ethylmaleimide and 10 ug/mL catalase; oxidized dimers against reduced monomers; with or without beta-mercaptoethanol in Laemmli buffer

Protein | stoichiometry N
Peroxiredoxin 3, endogenous mouse (natural protein, UniProt P20108 63-257, looked up, Peroxiredoxin 3, mitochondrial, mouse; also called Prdx3; source: endogenous, mouse cerebellum and heart lysates) TPAVTQHAPYFKGTAVVNGEFKELSLDDFKGKYLVLFFYPLDFTFVCPTEIVAFSDKANEFHDVNCEVVAVSVDSHFSHLAWINTPRKNGGLGHMNITLLSDITKQISRDYGVLLESAGIALRGLFIIDPNGVVKHLSVNDLPVGRSVEETLRLVKAFQFVETHGEVCPANWTPESPTIKPSPTASKEYFEKVHQ | 2
Peroxiredoxin 3, endogenous human (natural protein, UniProt P30048 62-256, looked up, Peroxiredoxin 3, mitochondrial, human; also called Prdx3; PRDX3; source: endogenous: A549 cells (BioID); human lymphoblast lysate fractions (co-IP); human dermal fibroblast lysate (redox blot)) APAVTQHAPYFKGTAVVNGEFKDLSLDDFKGKYLVLFFYPLDFTFVCPTEIVAFSDKANEFHDVNCEVVAVSVDSHFSHLAWINTPRKNGGLGHMNIALLSDLTKQISRDYGVLLEGSGLALRGLFIIDPNGVIKHLSVNDLPVGRSVEETLRLVKAFQYVETHGEVCPANWTPDSPTIKPSPAASKEYFQKVNQ | 2
